Assay results taken from patent publication US20210024625A1 (published 2021).

T1: PfRH5 from Plasmodium falciparum strain 3D7 (Plasmodium falciparum, UniProt Q8IFM5 25-526)
T1 sequence: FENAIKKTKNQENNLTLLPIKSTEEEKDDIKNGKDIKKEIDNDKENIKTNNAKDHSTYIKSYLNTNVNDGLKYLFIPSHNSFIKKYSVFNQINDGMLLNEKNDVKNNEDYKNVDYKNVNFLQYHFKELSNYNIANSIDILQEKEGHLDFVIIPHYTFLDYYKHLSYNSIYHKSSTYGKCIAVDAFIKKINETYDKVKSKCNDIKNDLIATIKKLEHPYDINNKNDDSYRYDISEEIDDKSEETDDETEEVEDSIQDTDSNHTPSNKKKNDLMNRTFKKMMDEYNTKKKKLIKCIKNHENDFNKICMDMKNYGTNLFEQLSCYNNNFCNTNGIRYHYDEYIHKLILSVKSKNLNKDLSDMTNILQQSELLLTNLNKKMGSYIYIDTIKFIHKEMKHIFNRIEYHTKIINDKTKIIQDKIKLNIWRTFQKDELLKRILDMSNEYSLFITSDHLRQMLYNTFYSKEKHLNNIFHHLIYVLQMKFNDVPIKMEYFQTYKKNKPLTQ

B1: H1H29215P2 (antibody, V domains shown)
VH: QVQLQQWGAGLLKPSETLSLTCAVSDESFSDYYWTWIRQPPGKGLEWIGEITHSGSTHYNPSLKSRVTLSVDTSKNHFSLSLNSVTAADTAIYYCARGGDYGGLLDYWGQGTLVTVSS
VL: not shown
B2: H1H29207P2 (antibody, V domains shown)
VH: EVQLVESGGGLVQPGGSLRLSCAASGFTFSSYAMNWVRQAPGKGLEWVSAVSGSADITNYADSVKGRFTISRDNSKHTLYLQMNSLRAEDTAVYYCAKDKVYNWNYGIYYGMDVWGQGTTVTVSS
VL: not shown
B3: H1H29138P (antibody, V domains shown)
VH: QVQLVESGGGVVQPGRSLRLSCAASGFTFSTYGMHWVRQAPGKGLEWVAVIWYDGTNKYYADSVKGRFTISRDNSKNTLYLQMISLRAEDTAVYYCARDPSGGDHYYYYGMDVWGQGTTVTVSS
VL: DIQMTQSPSSLSASVGDRITITCQASQDISNYLNWYQQKPGKAPNLLISDASDLETGVPSRFSGSGSGTDFTFTISSLQPEDFATYYCQQYDNIPITFGQGTRLEIKR
B4: H1H29196P2 (antibody, V domains shown)
VH: EVQLVESGGDLVQPGGSLRLSCAASGFAVNGDYFSWVRQAPGKGLEWISVIYSSGNTYYADSVKGRFTISRHNSKNTLYLQMSSLRPEDTAVYYCARDFPPMSGADYWGQGTLVTVSS
VL: not shown
B5: H1H29192P2 (antibody, V domains shown)
VH: QVQLVQSGAEVKKPGASVRVSCMASGYTFTGYYMHWVRQAPGQGLEWMGWINPNSGGTKYAQKFQGRVTMTRDTSISTAYMELSRLRSDDTAVYYCAREEVDDFWSGYLDYWGQGTLVTVSS
VL: not shown
B6: H1H29149P2 (antibody, V domains shown)
VH: QVQLQESGPGLVKPSQTLSLTCTVSGGSISSGGYYWNWIRQHPGKGLEWIGYIYYSGSTYYNPSLKSRVTISVDTSKNQFSLKLGSVTAADTAVYYCARAPPYNWFDYWGQGTLVTVSS
VL: not shown
B7: H1H29125P (antibody, V domains shown)
VH: QVQLVESGGGVVQPGRSLRLSCAASGFTFSSYGMHWVRQAPGKGLEWMAVISYDGSNKYYADSVKGRFTISRDNSKNTLFLQMNSLRPEDTAVYYCAQDGSSAIYYFYGMDVWGQGTTVTVSS
VL: DIQMTQSPSSLSASIGDRVTITCRASQDINNYLAWFQQKPGKAPKSLIYAASSLQSGVPSKFSGSGSGTDFTLTISSLQPEDFATYYCLQYNSYHPTFGQGTKLEIKR
B8: H1H29146P2 (antibody, V domains shown)
VH: EVQLVESGGGLVQPGGSLQLSCAASGFAFSDSAIYWVRQASGKGLEWVGRIRNKANRFATAYGASVKGRFSIHRDDSKNTAYLQMNSLKTEDTAVYYCARHGHDTLTEGYGMDVWGQGTTVTVSS
VL: not shown
B9: H1H29141P (antibody, V domains shown)
VH: QVQLVESGGGVVQPGRSLRLSCAASGFTFSSYGMHWVRQAPGKGLEWVTFISFDERNKYYADSVKGRFTISRDNSKNTLYLQMNSLRAEDTAMYYCASEVGYSFGHDAFDIWGQGTMVTVSS
VL: not shown
B10: H1H29151P2 (antibody, V domains shown)
VH: QVQLVESGGGLVKPGGSLRLSCAASGFTFSDYYMNWVRQAPGKGLEWVSYISNSGNTQYYADSVKGRFTISRDNAKNSLFLQMNSLRAEDTAVYYCTREGLEYSSSEPFDYWGQGTLVTVSS
VL: not shown
B11: H1H29166P2 (antibody, V domains shown)
VH: EVQLVESGGGLLQPGRSLRLSCVASGFTFDDYAMHWVRQAPGKGLEWVSGISWNSESIGYADSVRGRFTISRDNAKNSLYLQMNSLRAEDTALYYCAKAPYSGTYFEYFRHWGQGTLVTVSS
VL: not shown
B12: H1H29198P2 (antibody, V domains shown)
VH: QVQLVQSGAEVKKPGASVKVSCKVSGYTLTELSMHWVRQAPGKGLEWMGGFDPEHGKIIYAQKFQGRVTMTEDTSTDTAYMELSSLRSEDTAVYYCATFYNWNSYYFGMDVWGHGTTVTVSS
VL: not shown
B13: H1H29163P2 (antibody, V domains shown)
VH: QVQLVQSGAEVKKPGASVKVSCKTSGYTFTAYYIHWVRQAPGQGLEWMGWINPNNGDTNYALRFQGRVTMTRDMSINTAYMELRGLRSDDTAVYYCARDDLAAAGIGWFDSWGQGTLVTVSS
VL: not shown
B14: H1H29209P2 (antibody, V domains shown)
VH: QLQLQESGPGLVKPSETLSLTCTVSGGSISSRSHYWGWIRQPPGKGLEWIGSIYYSGSTYYNPSLKSRVTISVDTSKNQFSLKLSSVTAADTAVYYCARLGWYAEEAFEIWGQGTMVTVSS
VL: not shown
B15: H1H29214P2 (antibody, V domains shown)
VH: QLQLQESGPGLVKPSETLSLTCTVSGGSISSSSYYWGWIRQPPGKGLEWIGSIYYSGSTYYNPSLKSRVTISVDTSKNQFSLKLSSVTAADTAVYYCARQGRWERENFDYWGQGTLVTVSS
VL: not shown

Tests used:
Assay in all cases: cell-based or functional assay
[1] = target: PfRH5 from Plasmodium falciparum strain D10 (Plasmodium falciparum)
[2] = target: PfRH5 from Plasmodium falciparum strain Dd2 (Plasmodium falciparum)
[3] = target: PfRH5 from Plasmodium falciparum strain 7G8 (Plasmodium falciparum)
[4] = target: PfRH5 from Plasmodium falciparum strain W2-mef (Plasmodium falciparum)
[5] = target: PfRH5 from Plasmodium falciparum strain HB3 (Plasmodium falciparum)
[6] = target: PfRH5 from Plasmodium falciparum strain FCR-1/FVO (Plasmodium falciparum)
[7] = target: PfRH5 from Plasmodium falciparum strain Cam3.II (Plasmodium falciparum)
[8] = target: PfRH5 from Plasmodium falciparum strain RF7 (Plasmodium falciparum)
[9] = target: T1, PfRH5 from Plasmodium falciparum strain …

| Binder | Max growth inhibition (%) [1] | Max growth inhibition (%) [2] | Max growth inhibition (%) [3] | Max growth inhibition (%) [4] | Max growth inhibition (%) [5] | Max growth inhibition (%) [6] | Max growth inhibition (%) [7] | Max growth inhibition (%) [8] | Max growth inhibition (%) [9] |
| --- | --- | --- | --- | --- | --- | --- | --- | --- | --- |
| B1 | 35.8% | 22.8% | 33.2% | 37.2% | 30.1% | 54% | 27.2% | 11.3% |  |
| B2 | 73.9% | 61.3% | 58.7% | 65.2% | 49.3% | 69.2% | 45.3% | 31.1% |  |
| B3 | 57.1% | 74.4% | 57.4% | 66.4% | 51.4% | 84.1% | 48.7% | 51.4% | 58.5% |
| B4 | 14.3% | -1.65% | 23.4% | 17% | 26.8% | 21.9% | 6.09% | 3.78% |  |
| B5 | 8.7% | -15.2% | 12.4% | 4.35% | 5.62% | 15.1% | -3.38% | -7.69% |  |
| B6 | 66% |  |  | 42.8% | 40% | 58% | 36.2% | 14.7% | 44.1% |
| B7 | 75.4% | 51.4% | 47% | 64.6% |  | 67.6% | 42.7% | 21% | 51.1% |
| B8 | 10.8% |  | 19.1% | 0.57% | 33.9% | 7.32% | 8.18% | 5.97% | 8.57% |
| B9 | 50% | 65.3% | 54.6% | 56.2% | 50% | 74.2% | 49.3% | 32.1% | 48.2% |
| B10 | 38.7% | 58% | 47.5% | 53.9% | 31.7% | 53.7% | 26.3% | 18.3% | 35.5% |
| B11 | 70.9% | 60% | 54.6% | 61.9% | 54.9% | 69.7% | 55.9% | 19.4% | 53.1% |
| B12 | 4.38% | 10.1% | 5.31% | -3.61% | 15.5% | 11.1% | 14.7% | 1.53% |  |
| B13 |  | 61.2% | 62.6% | 63.7% | 56.5% | 64.5% | 46.7% | 10.7% | 55.6% |
| B14 | 72.7% | 38.1% | 49.9% | 39.6% | 52.4% | 19.2% | 47.3% | 11.9% |  |
| B15 | 76.5% | 47.2% | 56.7% | 52.7% | 59.1% | 13.1% | 46.7% | 11.2% |  |
